Ends that are not written are not given here.
Molecular target: T1, His-hPPARγ (231-505) ligand-binding domain, wild-type (human, UniProt P37231-1 231-505)
T1 sequence: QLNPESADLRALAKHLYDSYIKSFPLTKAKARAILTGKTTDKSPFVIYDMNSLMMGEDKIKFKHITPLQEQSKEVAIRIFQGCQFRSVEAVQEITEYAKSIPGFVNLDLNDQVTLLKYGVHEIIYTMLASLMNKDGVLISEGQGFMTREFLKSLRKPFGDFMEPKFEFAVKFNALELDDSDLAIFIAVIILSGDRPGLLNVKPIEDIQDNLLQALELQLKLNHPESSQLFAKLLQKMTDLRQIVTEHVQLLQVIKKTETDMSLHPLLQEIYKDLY
Test: MST

Question: Does NLGLEDIIRKALMG (also: fluorescent label, dye and position not given here) [fluorescent NCoR1 peptide (2260-NLGLEDIIRKALMG-2273)] bind?
Answer: Result: binds

Question: Does EAEEPSLLKKLLLAPA (also: fluorescent label, dye and position not given here) [fluorescent PGC1α peptide (137-EAEEPSLLKKLLLAPA-152)] bind?
Answer: Result: binds

From paper doi:10.1101/868190 (bioRxiv, 2019)
